What all share (experiment): limited trypsin proteolysis
Data set [1] concerns the target T1, FnoCas9 (Francisella tularensis novicida, UniProt A0Q5Y3 1-1629).
In data set [2] the target is T2, SpyCas9 (Streptococcus pyogenes, UniProt Q99ZW2 1-1368).
The target in data set [3] is T1, FnoCas9. The source holds these as a separate data set.
Data set [4] addresses T2, SpyCas9. The source holds these as a separate data set.

The text below walks through data of article PMC5760271.

Read-outs that look alike come from different tables or passages of the source.

T1 sequence (A0Q5Y3 whole entry): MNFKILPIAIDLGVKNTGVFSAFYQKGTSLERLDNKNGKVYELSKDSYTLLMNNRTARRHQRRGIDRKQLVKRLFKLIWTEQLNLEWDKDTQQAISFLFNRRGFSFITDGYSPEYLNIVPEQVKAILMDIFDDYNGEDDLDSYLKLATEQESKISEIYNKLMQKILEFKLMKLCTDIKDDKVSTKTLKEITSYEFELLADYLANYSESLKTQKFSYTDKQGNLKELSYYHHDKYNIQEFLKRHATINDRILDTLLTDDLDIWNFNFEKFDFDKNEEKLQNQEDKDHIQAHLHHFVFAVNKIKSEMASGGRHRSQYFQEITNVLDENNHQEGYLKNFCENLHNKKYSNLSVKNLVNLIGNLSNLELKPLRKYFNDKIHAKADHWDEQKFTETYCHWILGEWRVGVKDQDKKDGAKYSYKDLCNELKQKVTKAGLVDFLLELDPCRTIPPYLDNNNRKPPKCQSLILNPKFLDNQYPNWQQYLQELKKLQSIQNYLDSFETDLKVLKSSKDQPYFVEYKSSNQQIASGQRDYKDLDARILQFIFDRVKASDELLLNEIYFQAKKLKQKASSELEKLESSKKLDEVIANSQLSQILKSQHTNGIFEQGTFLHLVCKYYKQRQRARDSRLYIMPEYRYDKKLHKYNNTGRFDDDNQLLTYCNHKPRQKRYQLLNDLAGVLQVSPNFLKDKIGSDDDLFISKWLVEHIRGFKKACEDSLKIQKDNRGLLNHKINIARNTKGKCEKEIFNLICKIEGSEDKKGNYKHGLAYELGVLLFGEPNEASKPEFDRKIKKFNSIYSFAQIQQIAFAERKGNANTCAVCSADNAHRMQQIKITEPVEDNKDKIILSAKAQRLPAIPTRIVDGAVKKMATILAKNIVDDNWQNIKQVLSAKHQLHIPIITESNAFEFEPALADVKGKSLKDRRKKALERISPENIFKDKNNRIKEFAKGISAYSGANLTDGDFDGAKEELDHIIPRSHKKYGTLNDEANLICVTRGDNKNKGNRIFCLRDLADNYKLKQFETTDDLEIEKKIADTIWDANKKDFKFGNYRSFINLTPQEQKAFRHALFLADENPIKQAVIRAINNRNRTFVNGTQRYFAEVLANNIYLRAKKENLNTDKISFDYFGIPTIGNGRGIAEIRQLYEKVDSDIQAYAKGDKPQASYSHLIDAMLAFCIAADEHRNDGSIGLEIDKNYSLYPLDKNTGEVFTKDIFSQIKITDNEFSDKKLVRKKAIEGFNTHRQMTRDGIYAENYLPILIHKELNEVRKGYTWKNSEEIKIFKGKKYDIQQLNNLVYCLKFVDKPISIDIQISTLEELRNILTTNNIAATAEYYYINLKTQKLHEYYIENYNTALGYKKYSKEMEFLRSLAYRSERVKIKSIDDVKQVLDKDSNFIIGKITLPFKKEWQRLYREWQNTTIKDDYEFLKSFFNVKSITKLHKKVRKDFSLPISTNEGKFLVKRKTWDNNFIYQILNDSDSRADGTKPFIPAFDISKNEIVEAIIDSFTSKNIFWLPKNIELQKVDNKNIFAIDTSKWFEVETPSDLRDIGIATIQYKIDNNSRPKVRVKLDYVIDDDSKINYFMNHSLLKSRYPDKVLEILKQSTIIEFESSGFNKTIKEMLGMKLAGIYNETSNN
T2 sequence (Q99ZW2 whole entry): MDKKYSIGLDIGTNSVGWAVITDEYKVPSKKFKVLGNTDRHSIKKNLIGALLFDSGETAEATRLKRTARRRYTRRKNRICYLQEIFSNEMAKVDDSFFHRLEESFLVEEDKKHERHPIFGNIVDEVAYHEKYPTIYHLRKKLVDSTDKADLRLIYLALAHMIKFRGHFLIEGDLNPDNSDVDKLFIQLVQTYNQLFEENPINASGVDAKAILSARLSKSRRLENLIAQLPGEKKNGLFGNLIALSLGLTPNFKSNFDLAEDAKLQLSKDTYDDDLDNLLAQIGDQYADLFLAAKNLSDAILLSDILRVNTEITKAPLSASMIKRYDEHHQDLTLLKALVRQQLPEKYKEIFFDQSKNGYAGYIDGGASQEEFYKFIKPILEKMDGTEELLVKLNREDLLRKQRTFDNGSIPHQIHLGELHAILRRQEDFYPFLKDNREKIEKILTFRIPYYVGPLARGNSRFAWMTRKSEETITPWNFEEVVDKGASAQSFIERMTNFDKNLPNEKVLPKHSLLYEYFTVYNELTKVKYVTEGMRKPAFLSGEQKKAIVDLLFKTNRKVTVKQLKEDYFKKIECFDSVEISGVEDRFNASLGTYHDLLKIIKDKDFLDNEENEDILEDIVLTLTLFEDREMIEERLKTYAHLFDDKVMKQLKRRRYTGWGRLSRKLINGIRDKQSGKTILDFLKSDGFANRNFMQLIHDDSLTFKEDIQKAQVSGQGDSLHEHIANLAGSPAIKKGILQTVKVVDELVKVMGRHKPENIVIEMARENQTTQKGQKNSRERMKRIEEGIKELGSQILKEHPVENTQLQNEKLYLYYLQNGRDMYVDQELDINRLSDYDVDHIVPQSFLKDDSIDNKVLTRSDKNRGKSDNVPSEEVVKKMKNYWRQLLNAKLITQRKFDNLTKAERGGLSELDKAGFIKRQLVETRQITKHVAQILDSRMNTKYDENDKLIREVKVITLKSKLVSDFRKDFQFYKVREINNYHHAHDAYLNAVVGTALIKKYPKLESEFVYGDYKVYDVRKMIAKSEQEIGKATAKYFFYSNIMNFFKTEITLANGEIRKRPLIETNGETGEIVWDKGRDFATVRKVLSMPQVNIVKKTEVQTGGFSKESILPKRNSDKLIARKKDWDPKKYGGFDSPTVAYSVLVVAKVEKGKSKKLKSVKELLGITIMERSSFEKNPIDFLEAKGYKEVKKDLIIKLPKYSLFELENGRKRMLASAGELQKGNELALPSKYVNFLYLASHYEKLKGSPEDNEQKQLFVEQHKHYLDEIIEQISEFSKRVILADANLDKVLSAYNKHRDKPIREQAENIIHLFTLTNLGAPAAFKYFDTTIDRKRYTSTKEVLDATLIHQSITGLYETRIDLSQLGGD

B1: 60-mer ss oligo (197-FR) (ssDNA)
DNA: AGCAGATTGTACTGAGAGTGCACCATATGCGGTGTGAAATACCGCACAGATGCGTAAGGA
For B1, the binding result with FnoCas9 [1] and in the data set with SpyCas9 [2] was “binds” throughout.

B2: FnoCas9 crRNA-tracrRNA (structured_RNA)
RNA 1: GGGAUAACUCAAUUUGUAAAAAAGUUUCAGUUGCUGAAUUAUUUGGUAAAC
RNA 2: GGGCCAAAUAAUUAAUGCUCUGUAAUCAUUUAAAAGUAUUUUGAACGGACCUCUGUUUGACACGUCUGAAUAACUAAAAAGCAAAAAUUUGCCACCUAAGUGGCUUUUUUU
Take B2: the binding result with FnoCas9 [3] is reported as “binds”.

B3: SpyCas9 sgRNA (structured_RNA)
RNA: GGGAUUUCUUCUUGCGCUUUUUGUUUUAGAGCUAUGCUGUUUUGGAAACAAAACAGCAUAGCAAGUUAAAAUAAGGCUAGUCCGUUAUCAACUUGAAAAAGUGGCACCGAGUCGGUGCUUUUUU
B3: in the data set with SpyCas9 [4], the binding result was “binds”.
